Reference: IntAct's records for PubMed 29892012

B1: Ribosome assembly protein METTL17, mitochondrial (Homo sapiens), Q9H7H0 (parent)
chain: MAAALKCLLTLGRWCPGLGVAPQARALAALVPGVTQVDNKSGFLQKRPHRQHPGILKLPHVRLPQALANGAQLLLLGSAGPTMENQVQTLTSYLWSRHLPVEPEELQRRARHLEKKFLENPDLSQTEEKLRGAVLHALRKTTYHWQELSYTEGLSLVYMAARLDGGFAAVSRAFHEIRARNPAFQPQTLMDFGSGTGSVTWAAHSIWGQSLREYMCVDRSAAMLVLAEKLLKGGSESGEPYIPGVFFRQFLPVSPKVQFDVVVSAFSLSELPSKADRTEVVQTLWRKTGHFLVLVENGTKAGHSLLMDARDLVLKGKEKSPLDPRPGFVFAPCPHELPCPQLTNLACSFSQAYHPIPFSWNKKPKEEKFSMVILARGSPEEAHRWPRITQPVLKRPRHVHCHLCCPDGHMQHAVLTARRHGRDLYRCARVSSWGDLLPVLTPSAFPPSTAQDPSES
partner: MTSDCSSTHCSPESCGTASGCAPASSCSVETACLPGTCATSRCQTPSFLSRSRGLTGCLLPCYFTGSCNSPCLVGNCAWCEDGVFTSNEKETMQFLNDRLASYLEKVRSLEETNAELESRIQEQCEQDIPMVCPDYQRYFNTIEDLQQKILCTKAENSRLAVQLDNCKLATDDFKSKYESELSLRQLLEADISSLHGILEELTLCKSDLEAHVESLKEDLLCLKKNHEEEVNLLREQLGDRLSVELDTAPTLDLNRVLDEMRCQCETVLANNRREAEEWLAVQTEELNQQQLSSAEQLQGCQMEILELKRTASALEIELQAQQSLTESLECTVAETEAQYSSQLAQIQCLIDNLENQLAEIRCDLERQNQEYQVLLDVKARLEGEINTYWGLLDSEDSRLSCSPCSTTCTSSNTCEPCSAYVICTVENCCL
B2: Ribosome assembly protein METTL17, mitochondrial (Homo sapiens), Q9H7H0 (parent)
chain: B1 chain
partner: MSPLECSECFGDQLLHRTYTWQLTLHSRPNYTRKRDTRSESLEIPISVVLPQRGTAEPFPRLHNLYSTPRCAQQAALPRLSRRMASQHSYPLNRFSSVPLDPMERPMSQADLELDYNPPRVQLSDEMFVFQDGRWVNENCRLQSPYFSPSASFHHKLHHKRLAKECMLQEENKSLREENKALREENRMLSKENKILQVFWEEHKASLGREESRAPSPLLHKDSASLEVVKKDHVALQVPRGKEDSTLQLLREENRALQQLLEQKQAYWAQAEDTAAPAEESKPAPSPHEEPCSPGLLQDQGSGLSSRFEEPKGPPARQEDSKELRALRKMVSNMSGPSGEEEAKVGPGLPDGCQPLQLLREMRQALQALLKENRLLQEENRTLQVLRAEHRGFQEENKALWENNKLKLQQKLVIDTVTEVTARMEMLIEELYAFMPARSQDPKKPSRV
B3: Ribosome assembly protein METTL17, mitochondrial (Homo sapiens), Q9H7H0 (parent)
chain: B1 chain
partner: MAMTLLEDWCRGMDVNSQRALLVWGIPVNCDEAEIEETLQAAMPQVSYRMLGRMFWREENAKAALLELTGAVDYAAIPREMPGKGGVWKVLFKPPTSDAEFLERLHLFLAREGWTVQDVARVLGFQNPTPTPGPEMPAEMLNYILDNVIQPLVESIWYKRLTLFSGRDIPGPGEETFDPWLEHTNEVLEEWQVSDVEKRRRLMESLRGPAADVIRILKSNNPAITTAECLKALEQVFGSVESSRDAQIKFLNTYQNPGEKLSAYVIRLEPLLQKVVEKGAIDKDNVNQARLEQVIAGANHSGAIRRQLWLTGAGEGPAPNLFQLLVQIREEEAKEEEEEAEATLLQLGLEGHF
B4: Ribosome assembly protein METTL17, mitochondrial (Homo sapiens), Q9H7H0 (parent)
chain: B1 chain
partner: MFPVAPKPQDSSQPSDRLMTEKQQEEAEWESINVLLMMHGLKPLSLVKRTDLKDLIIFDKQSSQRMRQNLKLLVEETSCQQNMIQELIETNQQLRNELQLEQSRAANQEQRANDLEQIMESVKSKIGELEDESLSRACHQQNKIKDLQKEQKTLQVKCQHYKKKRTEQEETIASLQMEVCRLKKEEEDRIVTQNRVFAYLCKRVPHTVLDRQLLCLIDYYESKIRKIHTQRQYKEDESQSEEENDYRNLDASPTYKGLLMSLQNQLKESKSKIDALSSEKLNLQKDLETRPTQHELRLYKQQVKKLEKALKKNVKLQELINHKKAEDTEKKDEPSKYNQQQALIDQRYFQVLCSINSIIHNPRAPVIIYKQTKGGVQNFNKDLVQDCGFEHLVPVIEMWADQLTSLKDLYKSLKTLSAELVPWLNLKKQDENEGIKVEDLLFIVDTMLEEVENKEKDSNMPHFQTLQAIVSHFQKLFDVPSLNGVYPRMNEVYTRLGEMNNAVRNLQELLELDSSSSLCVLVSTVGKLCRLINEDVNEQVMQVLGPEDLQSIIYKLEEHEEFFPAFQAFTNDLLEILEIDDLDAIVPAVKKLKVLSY
B5: Ribosome assembly protein METTL17, mitochondrial (Homo sapiens), Q9H7H0 (parent)
chain: B1 chain

Variants of: B1
Settings: with KRT40, Q6A162

Row | Variant | effect of a mutation on the interaction
1 | R212H | with no effect

Variants of: B2
Settings: with cby2_human CBY2, Q8NA61

Row | Variant | effect of a mutation on the interaction
2 | R212H | with no effect

Variants of: B3
Settings: with pnma1_human PNMA1, Q8ND90

Row | Variant | effect of a mutation on the interaction
3 | R212H | with no effect

Variants of: B4
Settings: with cep70_human CEP70, Q8NHQ1

Row | Variant | effect of a mutation on the interaction
4 | R212H | with no effect

Variants of: B5
Settings: with sf3b4_human SF3B4, Q15427
Sequence of sf3b4_human SF3B4, Q15427 (Q15427 whole entry): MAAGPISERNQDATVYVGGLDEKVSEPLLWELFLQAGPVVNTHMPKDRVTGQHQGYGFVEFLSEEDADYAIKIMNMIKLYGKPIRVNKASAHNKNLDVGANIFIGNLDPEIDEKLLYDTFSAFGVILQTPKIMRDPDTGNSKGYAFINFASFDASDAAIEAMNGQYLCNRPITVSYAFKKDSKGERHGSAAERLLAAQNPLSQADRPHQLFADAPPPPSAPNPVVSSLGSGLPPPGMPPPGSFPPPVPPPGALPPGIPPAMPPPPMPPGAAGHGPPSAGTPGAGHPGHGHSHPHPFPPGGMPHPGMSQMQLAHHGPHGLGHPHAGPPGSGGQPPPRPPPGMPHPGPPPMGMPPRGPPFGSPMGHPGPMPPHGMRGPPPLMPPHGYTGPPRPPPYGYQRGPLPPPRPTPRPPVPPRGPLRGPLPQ

Row | Variant | effect of a mutation on the interaction
5 | R212H | with no effect

Variants of: B5
Settings: with mdfi_human MDFI

Row | Variant | effect of a mutation on the interaction
6 | R212H | with no effect
